T1: mouse FcγRII extracellular domain, C-terminal His tag (mouse, UniProt P08101 30-210)
T1 construct: also called mFcγRII; mFcgRII
T1 sequence: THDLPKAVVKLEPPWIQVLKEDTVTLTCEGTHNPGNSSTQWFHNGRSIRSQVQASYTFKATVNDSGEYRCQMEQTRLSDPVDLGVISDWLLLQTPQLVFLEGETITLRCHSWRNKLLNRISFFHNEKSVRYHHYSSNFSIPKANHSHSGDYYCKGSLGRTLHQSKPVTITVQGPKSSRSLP

T2: mouse FcγRIII extracellular domain, C-terminal His tag (mouse, UniProt P08508 31-215)
T2 construct: also called mFcγRIII; mFcgRIII
T2 chain: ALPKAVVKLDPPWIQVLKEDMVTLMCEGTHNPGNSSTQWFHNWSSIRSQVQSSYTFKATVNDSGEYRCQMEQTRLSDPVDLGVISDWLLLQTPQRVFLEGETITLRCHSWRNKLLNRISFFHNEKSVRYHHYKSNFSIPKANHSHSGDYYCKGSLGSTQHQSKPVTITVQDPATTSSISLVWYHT


Assays:
[1] = target: T1, mouse FcγRII extracellular domain, …; test: SPR (Biacore T200), antibody captured on Protein L, mFcγR analyte
Description: (§1) Each altered antibody was analyzed for its interaction with each Fcγ receptor prepared above using Biacore T100 (GE Healthcare Japan Corp.), Biacore T200 (GE Healthcare Japan Corp.), Biacore A100, or Biacore 4000. The running buffer used was HBS-EP+ (GE Healthcare Japan Corp.). The assay temperature was set to 25° C. The sensor chips used were chips prepared by immobilizing Protein L (ACTIGEN or BioVision) onto Series S Sensor Chip CM5 (GE Healthcare Japan Corp.) or Series S Sensor Chip CM4 (GE Healthcare Japan Corp.) by the amine coupling method.
(§2) In order to calculate the KD value of each altered antibody for FcγR, kinetic analysis was conducted according to the following method: first, the antibody of interest was captured onto any of these chips and allowed to interact with mFcγR diluted with a running buffer. For the obtained sensorgram, the assay results were globally fit into the 1:1 Langmuir binding model using Biacore Evaluation Software to calculate an association rate constant ka (L/mol/s) and a dissociation rate constant kd (1/s). From these values, the dissociation constant KD (mol/L) was calculated.

[2] = target: T2, mouse FcγRIII extracellular domain, …; test: as above
Description: as §1, §2

Row | Kd [1] | relative mFcγRII-binding activity (mIgG1 = 1) [1] | Kd [2] | relative mFcγRIII-binding activity (mIgG1 = 1) [2] | Binder
1 | 0.639 nM | 329 fold vs H237-mIgG1/MRAL-k0 | 45.4 nM | 6.2 fold vs H237-mIgG1/MRAL-k0 | H237-MB532/MRAL-k0 (antibody, mouse IgG1, kappa, copies: 2 + 2) heavy: QVQLQESGPGLVKPSETLSLTCAVSGHSISHDHAWSWVRQPPGEGLEWIGFISYSGITNYNPSLQGRVTISRDNSKNTLYLQMNSLRAEDTAVYYCARSLARTTAMDYWGEGTLVTVSSAKTTPPSVYPLAPGSAAQTNSMVTLGCLVKGYFPEPVTVTWNSGSLSSGVHTFPAVLQSDLYTLSSSVTVPSSTWPSETVTCNVAHPASSTKVDKKIVPRDCGCKPCICQPNEVEEVFIFPPKPKDVLTITLTPKVTCVVVDISKDDPEVQFSWFVDDVEVHTAQTQPREEQFNSTFRSVSELPIMHQDWLNGKEFKCRVNSDAFPAPIERTISKTKGRPKAPQVYTIPPPKEQMAKDKVSLTCMITDFFPEDITVEWQWNGQPAENYKNTQPIMDTDGSYFVYSKLNVQKSNWEAGNTFTCSVLHEGLHNHHTEKSLSHSPGK light: not shown
2 | 0.53 nM | 396 fold vs H237-mIgG1/MRAL-k0 | 36.8 nM | 7.7 fold vs H237-mIgG1/MRAL-k0 | H237-MB536/MRAL-k0 (antibody, mouse IgG1, kappa, copies: 2 + 2) heavy: QVQLQESGPGLVKPSETLSLTCAVSGHSISHDHAWSWVRQPPGEGLEWIGFISYSGITNYNPSLQGRVTISRDNSKNTLYLQMNSLRAEDTAVYYCARSLARTTAMDYWGEGTLVTVSSAKTTPPSVYPLAPGSAAQTNSMVTLGCLVKGYFPEPVTVTWNSGSLSSGVHTFPAVLQSDLYTLSSSVTVPSSTWPSETVTCNVAHPASSTKVDKKIVPRDCGCKPCICQPNEVEEVFIFPPKPKDVLTITLTPKVTCVVVDISKDDPEVQFSWFVDDVEVHTAQTQPREEQFNSTFRSVSELPIMHQDWLNGKEFKCRVDSDAFPAPIERTISKTKGRPKAPQVYTIPPPKEQMAKDKVSLTCMITDFFPEDITVEWQWNGQPAENYKNTQPIMDTDGSYFVYSKLNVQKSNWEAGNTFTCSVLHEGLHNHHTEKSLSHSPGK light: not shown
3 | 0.412 nM | 510 fold vs H237-mIgG1/MRAL-k0 | 31.7 nM | 8.9 fold vs H237-mIgG1/MRAL-k0 | H237-MB537/MRAL-k0 (antibody, mouse IgG1, kappa, copies: 2 + 2) heavy: QVQLQESGPGLVKPSETLSLTCAVSGHSISHDHAWSWVRQPPGEGLEWIGFISYSGITNYNPSLQGRVTISRDNSKNTLYLQMNSLRAEDTAVYYCARSLARTTAMDYWGEGTLVTVSSAKTTPPSVYPLAPGSAAQTNSMVTLGCLVKGYFPEPVTVTWNSGSLSSGVHTFPAVLQSDLYTLSSSVTVPSSTWPSETVTCNVAHPASSTKVDKKIVPRDCGCKPCICQPNEVEEVFIFPPKPKDVLTITLTPKVTCVVVDISKDDPEVQFSWFVDDVEVHTAQTQPREEQFNLTFRSVSELPIMHQDWLNGKEFKCRVDSDAFPAPIERTISKTKGRPKAPQVYTIPPPKEQMAKDKVSLTCMITDFFPEDITVEWQWNGQPAENYKNTQPIMDTDGSYFVYSKLNVQKSNWEAGNTFTCSVLHEGLHNHHTEKSLSHSPGK light: not shown
4 | 0.547 nM | 384 fold vs H237-mIgG1/MRAL-k0 | 83.3 nM | 3.4 fold vs H237-mIgG1/MRAL-k0 | H237-MB542/MRAL-k0 (antibody, mouse IgG1, kappa, copies: 2 + 2) heavy: QVQLQESGPGLVKPSETLSLTCAVSGHSISHDHAWSWVRQPPGEGLEWIGFISYSGITNYNPSLQGRVTISRDNSKNTLYLQMNSLRAEDTAVYYCARSLARTTAMDYWGEGTLVTVSSAKTTPPSVYPLAPGSAAQTNSMVTLGCLVKGYFPEPVTVTWNSGSLSSGVHTFPAVLQSDLYTLSSSVTVPSSTWPSETVTCNVAHPASSTKVDKKIVPRDCGCKPCICEPNEVEMVFIFPPKPKDVLTITLTPKVTCVVVDISKDDPEVQFSWFVDDVEVHTAQTQPREEQFNSTFRSVSELPIMHQDWLNGKEFKCRVDSDAFPAPIEKTISKTKGRPKAPQVYTIPPPKEQMAKDKVSLTCMITDFFPEDITVEWQWNGQPAENYKNTQPIMDTDGSYFVYSKLNVQKSNWEAGNTFTCSVLHEGLHNHHTEKSLSHSPGK light: not shown
5 | 2 nM | 105 fold vs H237-mIgG1/MRAL-k0 | 147 nM | 1.9 fold vs H237-mIgG1/MRAL-k0 | H237-MB539/MRAL-k0 (antibody, mouse IgG1, kappa, copies: 2 + 2) heavy: QVQLQESGPGLVKPSETLSLTCAVSGHSISHDHAWSWVRQPPGEGLEWIGFISYSGITNYNPSLQGRVTISRDNSKNTLYLQMNSLRAEDTAVYYCARSLARTTAMDYWGEGTLVTVSSAKTTPPSVYPLAPGSAAQTNSMVTLGCLVKGYFPEPVTVTWNSGSLSSGVHTFPAVLQSDLYTLSSSVTVPSSTWPSETVTCNVAHPASSTKVDKKIVPRDCGCKPCICEPNEVEMVFIFPPKPKDVLTITLTPKVTCVVVDISKDDPEVQFSWFVDDVEVHTAQTQPREEQFNLTFRSVSELPIMHQDWLNGKEFKCRVDSAAFPAPIEKTISKTKGRPKAPQVYTIPPPKEQMAKDKVSLTCMITDFFPEDITVEWQWNGQPAENYKNTQPIMDTDGSYFVYSKLNVQKSNWEAGNTFTCSVLHEGLHNHHTEKSLSHSPGK light: not shown
6 | 0.534 nM | 394 fold vs H237-mIgG1/MRAL-k0 | 39 nM | 7.2 fold vs H237-mIgG1/MRAL-k0 | H237-MB533/MRAL-k0 (antibody, mouse IgG1, kappa, copies: 2 + 2) heavy: QVQLQESGPGLVKPSETLSLTCAVSGHSISHDHAWSWVRQPPGEGLEWIGFISYSGITNYNPSLQGRVTISRDNSKNTLYLQMNSLRAEDTAVYYCARSLARTTAMDYWGEGTLVTVSSAKTTPPSVYPLAPGSAAQTNSMVTLGCLVKGYFPEPVTVTWNSGSLSSGVHTFPAVLQSDLYTLSSSVTVPSSTWPSETVTCNVAHPASSTKVDKKIVPRDCGCKPCICQPNEVEEVFIFPPKPKDVLTITLTPKVTCVVVDISKDDPEVQFSWFVDDVEVHTAQTQPREEQFNLTFRSVSELPIMHQDWLNGKEFKCRVDSDAFPAPIEKTISKTKGRPKAPQVYTIPPPKEQMAKDKVSLTCMITDFFPEDITVEWQWNGQPAENYKNTQPIMDTDGSYFVYSKLNVQKSNWEAGNTFTCSVLHEGLHNHHTEKSLSHSPGK light: not shown
7 | 2.44 nM | 86.2 fold vs H237-mIgG1/MRAL-k0 | 164 nM | 1.7 fold vs H237-mIgG1/MRAL-k0 | H237-MB538/MRAL-k0 (antibody, mouse IgG1, kappa, copies: 2 + 2) heavy: QVQLQESGPGLVKPSETLSLTCAVSGHSISHDHAWSWVRQPPGEGLEWIGFISYSGITNYNPSLQGRVTISRDNSKNTLYLQMNSLRAEDTAVYYCARSLARTTAMDYWGEGTLVTVSSAKTTPPSVYPLAPGSAAQTNSMVTLGCLVKGYFPEPVTVTWNSGSLSSGVHTFPAVLQSDLYTLSSSVTVPSSTWPSETVTCNVAHPASSTKVDKKIVPRDCGCKPCICEPNEVEMVFIFPPKPKDVLTITLTPKVTCVVVDISKDDPEVQFSWFVDDVEVHTAQTQPREEQFNLTFRSVSELPIMHQDWLNGKEFKCRVNSAAFPAPIEKTISKTKGRPKAPQVYTIPPPKEQMAKDKVSLTCMITDFFPEDITVEWQWNGQPAENYKNTQPIMDTDGSYFVYSKLNVQKSNWEAGNTFTCSVLHEGLHNHHTEKSLSHSPGK light: not shown
8 | 1.41 nM | 149 fold vs H237-mIgG1/MRAL-k0 | 99.4 nM | 2.8 fold vs H237-mIgG1/MRAL-k0 | H237-MB540/MRAL-k0 (antibody, mouse IgG1, kappa, copies: 2 + 2) heavy: QVQLQESGPGLVKPSETLSLTCAVSGHSISHDHAWSWVRQPPGEGLEWIGFISYSGITNYNPSLQGRVTISRDNSKNTLYLQMNSLRAEDTAVYYCARSLARTTAMDYWGEGTLVTVSSAKTTPPSVYPLAPGSAAQTNSMVTLGCLVKGYFPEPVTVTWNSGSLSSGVHTFPAVLQSDLYTLSSSVTVPSSTWPSETVTCNVAHPASSTKVDKKIVPRDCGCKPCICEPNEVEMVFIFPPKPKDVLTITLTPKVTCVVVDISKDDPEVQFSWFVDDVEVHTAQTQPREEQFNLTFRSVSELPIMHQDWLNGKEFKCRVNSDAFPAPIEKTISKTKGRPKAPQVYTIPPPKEQMAKDKVSLTCMITDFFPEDITVEWQWNGQPAENYKNTQPIMDTDGSYFVYSKLNVQKSNWEAGNTFTCSVLHEGLHNHHTEKSLSHSPGK light: not shown
9 | 0.498 nM | 422 fold vs H237-mIgG1/MRAL-k0 | 33.2 nM | 8.5 fold vs H237-mIgG1/MRAL-k0 | H237-MB535/MRAL-k0 (antibody, mouse IgG1, kappa, copies: 2 + 2) heavy: QVQLQESGPGLVKPSETLSLTCAVSGHSISHDHAWSWVRQPPGEGLEWIGFISYSGITNYNPSLQGRVTISRDNSKNTLYLQMNSLRAEDTAVYYCARSLARTTAMDYWGEGTLVTVSSAKTTPPSVYPLAPGSAAQTNSMVTLGCLVKGYFPEPVTVTWNSGSLSSGVHTFPAVLQSDLYTLSSSVTVPSSTWPSETVTCNVAHPASSTKVDKKIVPRDCGCKPCICQPNEVEEVFIFPPKPKDVLTITLTPKVTCVVVDISKDDPEVQFSWFVDDVEVHTAQTQPREEQFNLTFRSVSELPIMHQDWLNGKEFKCRVNSDAFPAPIERTISKTKGRPKAPQVYTIPPPKEQMAKDKVSLTCMITDFFPEDITVEWQWNGQPAENYKNTQPIMDTDGSYFVYSKLNVQKSNWEAGNTFTCSVLHEGLHNHHTEKSLSHSPGK light: not shown
